T1: GHRH receptor (membrane receptors of human anterior pituitary cells) (human, UniProt Q02643 23-423)
T1 construct: whole, on cells; Native receptor in a membrane fraction of purchased normal human pituitaries, not intact cells; also called hGHRH receptor; human pituitary membrane homogenates
T1 sequence (looked up): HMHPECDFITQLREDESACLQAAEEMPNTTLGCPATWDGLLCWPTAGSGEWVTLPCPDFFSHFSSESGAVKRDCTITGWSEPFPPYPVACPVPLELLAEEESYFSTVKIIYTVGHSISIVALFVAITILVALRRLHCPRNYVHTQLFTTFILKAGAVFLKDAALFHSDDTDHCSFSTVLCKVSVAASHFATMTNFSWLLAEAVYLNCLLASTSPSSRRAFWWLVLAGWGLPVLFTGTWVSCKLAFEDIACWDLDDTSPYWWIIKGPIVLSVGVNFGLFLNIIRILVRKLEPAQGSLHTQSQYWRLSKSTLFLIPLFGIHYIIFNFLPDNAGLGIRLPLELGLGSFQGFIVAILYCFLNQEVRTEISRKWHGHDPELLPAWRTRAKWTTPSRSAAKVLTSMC

B1: P-21303 [N-Me-Tyr^1, D-Ala^2, Orn^12, Abu^15, Orn^21, Nle^27, Asp^28, Amc^30]hGHRH(1-30)NH2 (peptide)
peptide: [NMeY][dA]DAIFTNSYR[Orn]VL[Abu]QLSAR[Orn]LLQDI[Nle]DR[Aoc]-NH2
modifications: N-terminus assumed
SMILES: CCCC[C@H](NC(=O)[C@@H](NC(=O)[C@H](CC(=O)O)NC(=O)[C@H](CCC(N)=O)NC(=O)[C@H](CC(C)C)NC(=O)[C@H](CC(C)C)NC(=O)[C@H](CCCN)NC(=O)[C@H](CCCNC(=N)N)NC(=O)[C@H](C)NC(=O)[C@H](CO)NC(=O)[C@H](CC(C)C)NC(=O)[C@H](CCC(N)=O)NC(=O)[C@H](CC)NC(=O)[C@H](CC(C)C)NC(=O)[C@@H](NC(=O)[C@H](CCCN)NC(=O)[C@H](CCCNC(=N)N)NC(=O)[C@H](Cc1ccc(O)cc1)NC(=O)[C@H](CO)NC(=O)[C@H](CC(N)=O)NC(=O)[C@@H](NC(=O)[C@H](Cc1ccccc1)NC(=O)[C@@H](NC(=O)[C@H](C)NC(=O)[C@H](CC(=O)O)NC(=O)[C@@H](C)NC(=O)[C@H](Cc1ccc(O)cc1)NC)[C@@H](C)CC)[C@@H](C)O)C(C)C)[C@@H](C)CC)C(=O)N[C@@H](CC(=O)O)C(=O)N[C@@H](CCCNC(=N)N)C(=O)NCCCCCCCC(N)=O
notes: also called Peptide 21303
B2: P-21300 [Dat^1, D-Ala^2, Orn^12, Abu^15, Orn^21, Nle^27, Asp^28, Amc^30]hGHRH(1-30)NH2 (peptide)
peptide: [Desaminotyrosyl][dA]DAIFTNSYR[Orn]VL[Abu]QLSAR[Orn]LLQDI[Nle]DR[Aoc]-NH2
SMILES: CCCC[C@H](NC(=O)[C@@H](NC(=O)[C@H](CC(=O)O)NC(=O)[C@H](CCC(N)=O)NC(=O)[C@H](CC(C)C)NC(=O)[C@H](CC(C)C)NC(=O)[C@H](CCCN)NC(=O)[C@H](CCCNC(=N)N)NC(=O)[C@H](C)NC(=O)[C@H](CO)NC(=O)[C@H](CC(C)C)NC(=O)[C@H](CCC(N)=O)NC(=O)[C@H](CC)NC(=O)[C@H](CC(C)C)NC(=O)[C@@H](NC(=O)[C@H](CCCN)NC(=O)[C@H](CCCNC(=N)N)NC(=O)[C@H](Cc1ccc(O)cc1)NC(=O)[C@H](CO)NC(=O)[C@H](CC(N)=O)NC(=O)[C@@H](NC(=O)[C@H](Cc1ccccc1)NC(=O)[C@@H](NC(=O)[C@H](C)NC(=O)[C@H](CC(=O)O)NC(=O)[C@@H](C)NC(=O)CCc1ccc(O)cc1)[C@@H](C)CC)[C@@H](C)O)C(C)C)[C@@H](C)CC)C(=O)N[C@@H](CC(=O)O)C(=O)N[C@@H](CCCNC(=N)N)C(=O)NCCCCCCCC(N)=O
notes: also called Peptide 21300
B3: P-20357 [Dat^1, D-Ala^2, N-Me-Ala^8, Orn^12, Abu^15, Orn^21, Nle^27, Asp^28, Agm^29]hGHRH(1-29)NH2 (peptide)
peptide: [Desaminotyrosyl][dA]DAIFT[NMeA]SYR[Orn]VL[Abu]QLSAR[Orn]LLQDI[Nle]D[Agmatine]
SMILES: CCCC[C@H](NC(=O)[C@@H](NC(=O)[C@H](CC(=O)O)NC(=O)[C@H](CCC(N)=O)NC(=O)[C@H](CC(C)C)NC(=O)[C@H](CC(C)C)NC(=O)[C@H](CCCN)NC(=O)[C@H](CCCNC(=N)N)NC(=O)[C@H](C)NC(=O)[C@H](CO)NC(=O)[C@H](CC(C)C)NC(=O)[C@H](CCC(N)=O)NC(=O)[C@H](CC)NC(=O)[C@H](CC(C)C)NC(=O)[C@@H](NC(=O)[C@H](CCCN)NC(=O)[C@H](CCCNC(=N)N)NC(=O)[C@H](Cc1ccc(O)cc1)NC(=O)[C@H](CO)NC(=O)[C@H](C)N(C)C(=O)[C@@H](NC(=O)[C@H](Cc1ccccc1)NC(=O)[C@@H](NC(=O)[C@H](C)NC(=O)[C@H](CC(=O)O)NC(=O)[C@@H](C)NC(=O)CCc1ccc(O)cc1)[C@@H](C)CC)[C@@H](C)O)C(C)C)[C@@H](C)CC)C(=O)N[C@@H](CC(=O)O)C(=O)NCCCCNC(=N)N
notes: also called Peptide 20357
B4: P-20359 [N-Me-Tyr^1, D-Ala^2, Fpa5^6, Orn^12, Abu^15, Orn^21, Nle^27, Asp^28, Agm^29]hGHRH(1-29)NH2 (peptide)
peptide: [NMeY][dA]DAI[Phe(F5)]TNSYR[Orn]VL[Abu]QLSAR[Orn]LLQDI[Nle]D[Agmatine]
notes: also called Peptide 20359
B5: P-27400 [Dat^1, D-Ala^2, Orn^12, Abu^15, Orn^21, Nle^27, Asp^28]hGHRH(1-29)NH-CH3 (peptide)
peptide: [Desaminotyrosyl][dA]DAIFTNSYR[Orn]VL[Abu]QLSAR[Orn]LLQDI[Nle]DR-NHMe
SMILES: CCCC[C@H](NC(=O)[C@@H](NC(=O)[C@H](CC(=O)O)NC(=O)[C@H](CCC(N)=O)NC(=O)[C@H](CC(C)C)NC(=O)[C@H](CC(C)C)NC(=O)[C@H](CCCN)NC(=O)[C@H](CCCNC(=N)N)NC(=O)[C@H](C)NC(=O)[C@H](CO)NC(=O)[C@H](CC(C)C)NC(=O)[C@H](CCC(N)=O)NC(=O)[C@H](CC)NC(=O)[C@H](CC(C)C)NC(=O)[C@@H](NC(=O)[C@H](CCCN)NC(=O)[C@H](CCCNC(=N)N)NC(=O)[C@H](Cc1ccc(O)cc1)NC(=O)[C@H](CO)NC(=O)[C@H](CC(N)=O)NC(=O)[C@@H](NC(=O)[C@H](Cc1ccccc1)NC(=O)[C@@H](NC(=O)[C@H](C)NC(=O)[C@H](CC(=O)O)NC(=O)[C@@H](C)NC(=O)CCc1ccc(O)cc1)[C@@H](C)CC)[C@@H](C)O)C(C)C)[C@@H](C)CC)C(=O)N[C@@H](CC(=O)O)C(=O)N[C@@H](CCCNC(=N)N)C(=O)NC
B6: P-25501 [N-Me-Tyr^1, D-Ala^2, Orn^12, Abu^15, Orn^21, Nle^27, Gab^30]hGHRH(1-30)NH2 (peptide)
peptide: [NMeY][dA]DAIFTNSYR[Orn]VL[Abu]QLSAR[Orn]LLQDI[Nle]SR[GABA]-NH2
modifications: N-terminus assumed
SMILES: CCCC[C@H](NC(=O)[C@@H](NC(=O)[C@H](CC(=O)O)NC(=O)[C@H](CCC(N)=O)NC(=O)[C@H](CC(C)C)NC(=O)[C@H](CC(C)C)NC(=O)[C@H](CCCN)NC(=O)[C@H](CCCNC(=N)N)NC(=O)[C@H](C)NC(=O)[C@H](CO)NC(=O)[C@H](CC(C)C)NC(=O)[C@H](CCC(N)=O)NC(=O)[C@H](CC)NC(=O)[C@H](CC(C)C)NC(=O)[C@@H](NC(=O)[C@H](CCCN)NC(=O)[C@H](CCCNC(=N)N)NC(=O)[C@H](Cc1ccc(O)cc1)NC(=O)[C@H](CO)NC(=O)[C@H](CC(N)=O)NC(=O)[C@@H](NC(=O)[C@H](Cc1ccccc1)NC(=O)[C@@H](NC(=O)[C@H](C)NC(=O)[C@H](CC(=O)O)NC(=O)[C@@H](C)NC(=O)[C@H](Cc1ccc(O)cc1)NC)[C@@H](C)CC)[C@@H](C)O)C(C)C)[C@@H](C)CC)C(=O)N[C@@H](CO)C(=O)N[C@@H](CCCNC(=N)N)C(=O)NCCCC(N)=O
notes: also called Peptide 25501
B7: P-27414 [N-Me-Tyr^1, D-Ala^2, Fpa5^6, Orn^12, Abu^15, Orn^21, Nle^27, Gab^30]hGHRH(1-30)NH-CH3 (peptide)
peptide: [NMeY][dA]DAI[Phe(F5)]TNSYR[Orn]VL[Abu]QLSAR[Orn]LLQDI[Nle]SR[GABA]-NHMe
notes: also called Peptide 27414

For orientation: IC50 means the midpoint of a concentration-inhibition curve. Read a high IC50 as a need for much substance.

Non-standard residues stand in square brackets, D forms with d. No end group written: not given here. *: point of attachment. Phe(F5) = N[C@@H](Cc1c(F)c(F)c(F)c(F)c1F)C(=O)O; Desaminotyrosyl = O=C(CCc1ccc(O)cc1)*; NMeY = CN[C@@H](Cc1ccc(O)cc1)C(=O)O; Agmatine = N=C(N)NCCCCN*; NMeA = CN[C@@H](C)C(=O)O; Nle = CCCC[C@H](N)C(=O)O; Orn = NCCC[C@H](N)C(=O)O; Abu = CC[C@H](N)C(=O)O; Aoc = NCCCCCCCC(=O)O; GABA = NCCCC(=O)O

The assay deals with T1, GHRH receptor (membrane receptors of …). Description: competition with 125I-JV-1-42, human pituitary membranes. The text has this:
Normal human pituitaries were purchased from the National Hormone and Peptide Program (A. F. Parlow, Los Angeles, County Harbor-UCLA Medical Center, Torrance, Calif.).
As to B1, the 50% inhibitory concentration (IC50) was 1.87 nM and the “Relative affinity (Binding potency) vs JI-38” value (from here on “Relative affinity”) stood at 2.32 JI-38 = 1.
Taken in the same sequence, the figures for B2 were 3.61 nM and 1.2 JI-38 = 1.
For the molecule B3, the concentration for half-maximal inhibition (IC50) turned out to be 0.86 nM and the “Relative affinity” value was 5.06 JI-38 = 1.
For B4, in that order: 3.05 nM and 1.43 JI-38 = 1.
For B5, in that order: 3.35 nM and 1.3 JI-38 = 1.
For B6, the concentration for half-maximal inhibition (IC50) was 1.07 nM and the “Relative affinity” value came out at 4.07 JI-38 = 1.
For B7, in that order: 1.56 nM and 2.79 JI-38 = 1.

These data come from US20140179604A1 (U S A REPRESENTED BY THE DEPARTMENT OF VETERANS AFFAIRS, published 2014).
